Measurements published in patent publication US7563760 (GENETICS INSTITUTE, dated 2009).
One block for each binder: values may come before it. No end group written: not given here.

Tests used:
[1] = molecular target: T1, P-selectin expressed on the surface of CHO cells (CHO:P-selectin cell line) (UniProt P16109 42-830, limits assumed); assay: adhesion of 3H-thymidine-labelled CHO:P-selectin cells to transfected COS cells
T1 construct: whole, on cells; also called P-selectin expressing CHO cells
T1 sequence (looked up): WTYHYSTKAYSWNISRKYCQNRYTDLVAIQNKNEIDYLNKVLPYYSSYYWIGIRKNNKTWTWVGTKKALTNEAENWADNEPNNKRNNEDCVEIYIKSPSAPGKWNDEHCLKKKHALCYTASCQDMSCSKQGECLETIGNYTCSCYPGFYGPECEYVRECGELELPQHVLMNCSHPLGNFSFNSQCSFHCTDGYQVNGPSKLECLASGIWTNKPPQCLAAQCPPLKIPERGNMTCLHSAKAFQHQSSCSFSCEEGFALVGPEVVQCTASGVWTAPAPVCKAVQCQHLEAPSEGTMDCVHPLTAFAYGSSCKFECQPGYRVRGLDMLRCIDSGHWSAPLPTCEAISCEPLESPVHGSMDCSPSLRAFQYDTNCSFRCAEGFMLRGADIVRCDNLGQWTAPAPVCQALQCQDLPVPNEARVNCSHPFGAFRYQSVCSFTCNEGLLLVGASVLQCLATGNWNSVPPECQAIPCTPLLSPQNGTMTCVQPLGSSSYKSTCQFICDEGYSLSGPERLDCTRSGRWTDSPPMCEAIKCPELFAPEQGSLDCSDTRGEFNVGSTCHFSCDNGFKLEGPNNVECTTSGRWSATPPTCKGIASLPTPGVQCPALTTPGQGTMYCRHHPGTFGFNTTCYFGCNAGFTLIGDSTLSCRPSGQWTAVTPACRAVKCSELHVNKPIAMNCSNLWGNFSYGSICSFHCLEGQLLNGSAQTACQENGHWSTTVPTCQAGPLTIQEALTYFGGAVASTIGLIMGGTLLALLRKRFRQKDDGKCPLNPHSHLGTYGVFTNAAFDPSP
Procedure: COS cells were co-transfected with the pMT21:PL85 plasmid of Example 1 and the pEA.3/4FT plasmid of Example 2 by the same procedure used in the initial stages of screening. As controls, COS cells were transfected with pMT21:PL85 alone, or with pEA.3/4FT alone, or with a similar plasmid containing no insert ("mock"). 24 hours post-transfection, the transfected cells were trypsinized and distributed into Costar 6-well tissue culture plates. CHO:P-selectin cells were labeled for 16 hours with ^3H-thymidine using known methods and preincubated at 0.5×10^6 cells/ml for 30 minutes at 4° C. in α medium containing 1% BSA (control); α medium containing 1% BSA, 5 mM EDTA and 5 mM EGTA; α medium containing 1% BSA and 10 μg/ml of a neutralizing anti P-selectin monoclonal antibody; and α medium containing 1% BSA and a non-neutralizing anti-P-selectin monoclonal antibody. The preincubated cells were then added to the wells containing the transfected COS cells. After a 10 minute incubation, unbound cells were removed by 4 changes of medium. The bound CHO:P-selectin cells were released by trypsinization and quantified by scintillation counting.
Likewise, incubation with neutralizing anti-P-selectin antibody also eliminated specific binding, whereas non-neutralizing antibody had no effect. […]

[2] = molecular target: T2, E-selectin expressed on CHO cells (CHO:E-selectin) (UniProt P16581 22-610, limits assumed); assay: plate coated with chimera; adhesion of CHO:E-selectin cells (FIG. 20)
T2 construct: whole, on cells; also called E-selectin expressing CHO cells; CHO cells which express E-selectin
T2 sequence (looked up): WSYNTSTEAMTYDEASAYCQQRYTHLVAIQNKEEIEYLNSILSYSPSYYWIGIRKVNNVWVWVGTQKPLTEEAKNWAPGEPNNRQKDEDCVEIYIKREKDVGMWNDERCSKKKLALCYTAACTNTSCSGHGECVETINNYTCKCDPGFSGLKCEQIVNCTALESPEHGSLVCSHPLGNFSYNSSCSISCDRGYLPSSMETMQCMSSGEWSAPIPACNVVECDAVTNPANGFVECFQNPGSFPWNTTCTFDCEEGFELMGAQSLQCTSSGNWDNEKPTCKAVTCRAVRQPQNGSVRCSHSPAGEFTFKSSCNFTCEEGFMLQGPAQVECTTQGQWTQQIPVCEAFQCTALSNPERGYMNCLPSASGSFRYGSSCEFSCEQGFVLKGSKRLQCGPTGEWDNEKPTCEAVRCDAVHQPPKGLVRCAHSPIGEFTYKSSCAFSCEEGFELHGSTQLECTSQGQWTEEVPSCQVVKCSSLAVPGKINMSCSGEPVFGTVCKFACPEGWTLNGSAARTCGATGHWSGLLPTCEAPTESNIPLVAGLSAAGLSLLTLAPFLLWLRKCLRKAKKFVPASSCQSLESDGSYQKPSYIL
Procedure: (§1) Quantitative adhesion of CHO:P-selectin, CHO:E-selectin and CHO:L-selectin expressing cells was performed as described in Example 4(c), with the following modifications: COS cell and antibodies were omitted. Instead, 48-well microtiter plates (Costar) were coated for 16 hours at 4° C. with varying quantities of protein A-purified soluble PSGL-1/Fc chimeras. The unbound material was removed and the coated wells were treated with Hank's buffered saline (HBS) with 1 mg/ml BSA and 2 mM CaCl_2 for 1 hour at 4° C. Tritium labeled CHO selectin expressing cells were added and binding quantitated as described in Example 4(c).

[3] = molecular target: T1, P-selectin expressed on the surface of …; assay: plate coated with chimera; adhesion of CHO:P-selectin cells (FIG. 19)
Procedure: as §1

[4] = molecular target: T2, E-selectin expressed on CHO cells …; assay: plate coated with chimera; adhesion of CHO:E-selectin cells (FIG. 17)
Procedure: as §1

[5] = molecular target: T1, P-selectin expressed on the surface of …; assay: plate coated with chimera; adhesion of CHO:P-selectin cells (FIG. 17)
Procedure: as §1

[6] = molecular target: T3, E-selectin/IgG chimera of Example 9 (human) (UniProt P16581); assay: affinity capture on E-selectin/IgG chimera protein A sepharose, EDTA elution, scintillation counting
T3 sequence (looked up): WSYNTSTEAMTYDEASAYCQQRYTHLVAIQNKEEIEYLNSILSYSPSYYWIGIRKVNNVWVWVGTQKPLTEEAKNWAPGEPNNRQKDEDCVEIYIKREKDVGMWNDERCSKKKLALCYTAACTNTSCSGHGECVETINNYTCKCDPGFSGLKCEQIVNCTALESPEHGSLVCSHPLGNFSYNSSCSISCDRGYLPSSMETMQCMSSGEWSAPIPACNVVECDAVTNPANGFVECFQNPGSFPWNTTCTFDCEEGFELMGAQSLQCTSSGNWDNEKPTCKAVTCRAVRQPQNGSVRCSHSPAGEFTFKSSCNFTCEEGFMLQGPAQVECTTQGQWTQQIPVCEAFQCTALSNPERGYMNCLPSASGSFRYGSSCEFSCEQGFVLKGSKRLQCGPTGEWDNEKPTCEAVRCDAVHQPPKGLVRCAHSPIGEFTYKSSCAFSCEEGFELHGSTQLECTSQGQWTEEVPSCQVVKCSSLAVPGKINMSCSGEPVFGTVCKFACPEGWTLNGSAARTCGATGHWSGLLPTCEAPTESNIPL

[7] = molecular target: T4, LEC-γ1, chimeric form of P-selectin conjugated to the Fc portion of a human IgGγ1 (human, UniProt P16109 42-771); assay: affinity capture on P-selectin/IgG chimera protein A sepharose, EDTA elution, scintillation counting
T4 construct: extracellular domain; Built by known methods (Aruffo et al. 1991), made in CHO DUKX cells; also called P-selectin/IgG chimera; P-selectin/Fc chimera; not shown: Fc portion of a human IgGγ1
T4 sequence (looked up): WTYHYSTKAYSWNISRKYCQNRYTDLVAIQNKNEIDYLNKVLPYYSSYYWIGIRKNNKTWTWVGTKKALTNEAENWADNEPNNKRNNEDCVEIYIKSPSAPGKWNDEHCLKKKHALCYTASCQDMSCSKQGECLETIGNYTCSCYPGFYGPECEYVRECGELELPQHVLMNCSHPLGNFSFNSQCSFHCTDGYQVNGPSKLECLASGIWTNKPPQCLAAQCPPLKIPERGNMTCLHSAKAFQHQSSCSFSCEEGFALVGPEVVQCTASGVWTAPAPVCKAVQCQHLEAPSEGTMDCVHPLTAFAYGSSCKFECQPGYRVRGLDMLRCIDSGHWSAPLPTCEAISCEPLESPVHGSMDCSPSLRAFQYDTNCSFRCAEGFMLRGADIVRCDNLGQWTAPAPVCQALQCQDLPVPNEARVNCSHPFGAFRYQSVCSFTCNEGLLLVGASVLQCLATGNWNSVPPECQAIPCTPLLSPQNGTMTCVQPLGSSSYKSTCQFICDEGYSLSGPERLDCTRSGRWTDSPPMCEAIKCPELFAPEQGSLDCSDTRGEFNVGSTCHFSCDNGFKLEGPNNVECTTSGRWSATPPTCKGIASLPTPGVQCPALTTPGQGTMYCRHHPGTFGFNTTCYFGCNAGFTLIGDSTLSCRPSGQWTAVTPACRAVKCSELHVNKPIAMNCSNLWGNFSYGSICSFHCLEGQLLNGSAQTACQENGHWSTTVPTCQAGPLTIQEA
Procedure: U937 cells (approximately 6.5 ×10^7) were recovered from tissue culture plates and divided equally into two 50 mL cultures (final concentration of […]) containing fresh complete RPMI medium and 50 µCi/ml of ^3H-glucosamine hydrochloride (labels the protein-linked carbohydrate of glycoproteins [Varki, FASEB 5:226-235 (1991)]. After 48 hours incubation, the cells from both cultures were recovered by centrifugation and washed three times with PBS. The pelleted cells were suspended in 2.5 mL each of a lysis buffer containing 1% Triton X-100 and disrupted by probe sonication for two minutes. The detergent lysates were placed on ice for three hours and then resonicated for an additional two minutes. The lysates were centrifuged at 16,000 rpm for five minutes, the supernatants were recovered and each adjusted to 12 mL with lysis buffer containing no detergent. […]
Following incubation, the two parallel reaction mixtures were each centrifuged at 2,000 rpm and supernatants were discarded. […] A final 1 mL pre-elution wash of each resin pellet using buffer containing 0.01% Triton X-100 was conducted and these were retained for quantitation of radioactive counts by liquid scintillation counting (LSC). […] The supernatants were recovered by centrifugation and then quantitated by LSC.

fold binding of CHO:P-selectin cells relative to COS mock cells [1]: ~5.4 fold
B1: full-length P-selectin ligand protein (PSGL-1, pMT21:PL85) expressed with fucosylation (COS or CHO cells with 3/4FT, or LEC11 cells) (ligand)
chain: QATEYEYLDYDFLPETEPPEMLRNSTDTTPLTGPGTPESTTVEPAARRSTGLDAGGAVTELTTELANMGNLSTDSAAMEIQTTQPAATEAQTTPLAATEAQTTRLTATEAQTTPLAATEAQTTPPAATEAQTTQPTGLEAQTTAPAAMEAQTTAPAAMEAQTTPPAAMEAQTTQTTAMEAQTTAPEATEAQTTQPTATEAQTTPLAAMEALSTEPSATEALSMEPTTKRGLFIPFSVSSVTHKGIPMAASNLSVNYPVGAPDHISVKQCLLAILILALVATIFFVCTVVLAVRLSRKGHMYPVRNYSPTEMVCISSLLPDGGEGPSATANGGLSKAKSPGLTPEPREDREGDDLTLHSFLP
modifications: glycosylated; co-expressed with (α1,3/α1,4) fucosyltransferase (3/4FT) or made in SLex-positive LEC11 cells
notes: Encoded as amino acids 1-402; In blots and immunoprecipitations it stood as a membrane detergent extract; also called PSL; CD-PSGL-1 (R3.4) product

binding result [2]: binds
binding result [3]: binds
B2: H24.Q70.148.Fc (Fc fusion)
chain: QATEYEYLDYDFLPETEPPEMLRHSTDTTPLTGPGTPESTTVEPAARRSTGLDAGGAVTELTTELANMGQLSTDSAAMEIQTTQPAATEAQTTPLAATEAQTTRLTATEAQTTPLAATEAQTTPPAATEAQTTQPTGLEAQTTAPAAM
modifications: glycosylated, co-expressed with 3/4FT
notes: also called pED.H24.Q70.148.Fc product; not shown: NotI junction/linker of pED.Fc; Fc region of a human IgG1

binding result [4]: binds
binding result [5]: binds
B3: 47.Fc of Example 10, amino acids 42-88 of SEQ ID NO:2 fused to IgG Fc (Fc fusion)
chain: QATEYEYLDYDFLPETEPPEMLRNSTDTTPLTGPGTPESTTVEPAAR
modifications: not fully specified (C-terminus); also: glycosylated, co-expressed with 3/4FT, sites not given here
notes: also called pED.47.Fc product; not shown: NotI junction/linker of pED.Fc; Fc region of a human IgG1 from pED.PSL.Fc

radiolabel in the EDTA eluate relative to the final pre-EDTA wash [6]: > 10 fold
radiolabel in the EDTA eluate relative to the final pre-EDTA wash [7]: ≥ 10 fold
B4: native PSGL-1 of U937 cells (major glycoprotein captured from detergent extracts) (ligand, human, UniProt Q14242 42-412, looked up)
chain: QATEYEYLDYDFLPETEPPEMLRNSTDTTPLTGPGTPESTTVEPAARRSTGLDAGGAVTELTTELANMGNLSTDSAAMEIQTTQPAATEAQTTQPVPTEAQTTPLAATEAQTTRLTATEAQTTPLAATEAQTTPPAATEAQTTQPTGLEAQTTAPAAMEAQTTAPAAMEAQTTPPAAMEAQTTQTTAMEAQTTAPEATEAQTTQPTATEAQTTPLAAMEALSTEPSATEALSMEPTTKRGLFIPFSVSSVTHKGIPMAASNLSVNYPVGAPDHISVKQCLLAILILALVATIFFVCTVVLAVRLSRKGHMYPVRNYSPTEMVCISSLLPDGGEGPSATANGGLSKAKSPGLTPEPREDREGDDLTLHSFLP
modifications: native myeloid glycosylation, 3H-glucosamine labelled
notes: 200-220 kD non-reduced, 100-120 kD reduced; also called U937 ligand; major U937 glycoprotein
